Measurements reported in patent US12649783B2, “Anti-MCT1 antibodies and uses thereof” (IMMUNEXT INC., priority 2018, dated 2026).

Key:
MCT1 = biological target: T1, MCT1 (Homo sapiens, UniProt P53985); experiment: bromopyruvate toxicity assay (ATPlite); format: cell-based; details: bromopyruvate 150 μM; ATPlite; read-out: Kd for inhibition of bromopyruvate toxicity (protection from cell death)
T1 construct: HEK-293 WT cells only express MCT1/CD147 and no other MCTs as measured by RT-PCR; endogenous in cells; host or cells: HEK293T
T1 sequence (P53985 1-500): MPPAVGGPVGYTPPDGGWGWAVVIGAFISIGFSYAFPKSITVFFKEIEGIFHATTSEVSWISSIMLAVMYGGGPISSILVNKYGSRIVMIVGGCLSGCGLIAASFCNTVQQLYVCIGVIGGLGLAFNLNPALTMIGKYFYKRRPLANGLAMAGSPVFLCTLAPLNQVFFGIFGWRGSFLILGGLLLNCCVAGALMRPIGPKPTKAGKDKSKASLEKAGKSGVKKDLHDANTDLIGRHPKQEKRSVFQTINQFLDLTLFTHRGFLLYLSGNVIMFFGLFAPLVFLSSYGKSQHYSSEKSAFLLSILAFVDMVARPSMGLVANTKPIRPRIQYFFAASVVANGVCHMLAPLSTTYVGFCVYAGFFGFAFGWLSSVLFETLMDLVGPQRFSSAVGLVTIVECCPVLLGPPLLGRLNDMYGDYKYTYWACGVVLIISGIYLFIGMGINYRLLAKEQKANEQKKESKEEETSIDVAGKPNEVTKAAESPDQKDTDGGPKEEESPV
Experimental: Inhibition of bromopyruvate toxicity. Since MCT1 is the sole transporter necessary for the in vitro efficacy of the anti-cancer toxin bromopyruvate (Reference 66), a second cell-based functional assay was developed to measure the in vitro killing of cells using this toxin at a concentration of 150 μM.
HEK293T cells are pre-treated with anti-MCT1 antibody or small molecular MCT1 inhibitor at 37° C. for 1 hour. Cells are then incubated with a cytotoxic reagent 3-bromopyruvate (3-BrPy) at concentrations that rand from 25 to 500 μM for 2 to 6 hours. ATP from dying cells will be quantified using a commercial viability kit (ATPlite, PerkinElmer) in a 96-well plate and viability measured using luminescence. Reduction of ATP production indicates functionality of the antibody. A positive control antibody is the mouse or chimeric antibody before humanization. A negative control cell line is MCT1/CD147 double knockout 293T cells. Using this assay functional, i.e., antagonistic anti-MCT1 antibodies may be identified.

PK in cynos = format: in vivo, cynomolgus monkey; details: preliminary PK data
[1] = system: human RBC lactate transport; experiment: FLIPR lactate transport in purified human RBCs; format: cell-based; details: 10 mM lactate
Experimental: MCT1 Ab1 and AZ3965 were used to inhibit MCT1 lactate transport in purified human RBCs using FLIPR based transport assays (REF. 1, 2) in the presence of 10 mM lactate. The levels of lactate transport were compared to a no lactate control condition and a no inhibitor condition in the presence of lactate.

T cell proliferation = T cell proliferation assay (CD3/CD28 stimulated); format: cell-based, human; details: CD3/CD28 stimulated cultures; read-out: EC50 inhibition of T cell proliferation
Experimental: MCT1, MCT2, MCT4, and BSG (CD147) expression were measured in unstimulated and stimulated leukocytes from two different donors. For the “stimulated” condition, cells were CD3/CD28 activated for 3 days. Stimulated cells were tested for inhibition of proliferation by AZ3965.
Human T cell proliferation.
Inhibition of T cell proliferation, inflammatory cytokine production, and allogeneic activation. […] An anti-MCT1 antibody or antibody fragment of the invention may also be tested for its ability to inhibit the production of inflammatory cytokines, relative to controls, in stimulated T cells on day 3 post-stimulation. MCT1 Ab1As with CD3/CD28 activation, MCT1 Ab1 inhibited allogeneic activation by 50-60% in a human mixed lymphocyte reaction (see, e.g., FIG. 17).

human T cells = experiment: metabolomics of treated T cells; format: cell-based; details: preliminary
[2] = biological target: T2, MCT1 transport of lactate (Homo sapiens, UniProt P53985); experiment: lactate FLIPR assay; format: cell-based; details: activated T cells; FLIPR Tetra, BCECF; read-out: Kd for block of lactate transport
T2 construct: endogenous in cells
T2 sequence (P53985 1-500): T1 sequence (P53985 1-500)
Text: Effects on lactate transport.
Inhibition of lactate transport.

xeno-GVHD = experiment: xeno-GvHD model with anti-MCT1 antibodies (human PBMC into NSG mice); format: in vivo, mouse
Experimental: In this model of GvHD animals male NSG mice are treated with sub-lethal irradiation (250 rad), and afterward these mice receive 2.5×10^6 of fresh human PBMC (day 0). First dose of anti-human MCT1 is combined with cells and injected i.v. The follow up treatment schedule is weekly (day 7, 14 and 21, IP).
For re-challenge experiments previously treated with anti-MCT1 (days 0, 7, 14, 21) NSG mice receive a second dose of 2.5×10^6 of previously frozen human PBMC of the same donor (day 42). Survival and weight loss of these mice is monitored with no additional antibody treatments and compared to a new cohort of NSG mice receiving same donor PBMCs.
100 ul of total blood is used for analysis: blood was stained using a Stain-1 wash protocol to allow absolute cell count with Ab panel below followed by FACS lysis buffer 1× (BD Bioscience, #349202); whole blood was incubated with a 10× antibody (shown below) and after 30 min, the blood was lysed in a large volume of 1× lysis buffer (at least 6 times) following manufacturer instructions; or blood was first lysed with ACK (10 min), washed in PBS and stained with antibody mix, exactly as described in the table below.

[3] = repeated dosing safety in cynomolgus monkeys; format: in vivo, cynomolgus monkey
Text: In order to further corroborate the safety and efficacy of anti-MCT1 antibodies for human therapy we administered dosages of 50 mpk of anti-human MCT1 antibodies to cynomolgus monkeys. As disclosed in this example and corroborated by the figure referenced herein no toxicity was observed after 30 days.
As shown in FIG. 23 cynomolgus red blood cells (RBCs) express high levels of MCT1. Based thereon we tested the effects of antagonistic anti-MCT1 antibodies in cyno monkeys and in particular looked at any effects on RBCs after anti-MCT1 antibody dosing. Also, we determined whether cynos could tolerate a therapeutic effective dosage of the antibody.

cynomolgus MCT1 = experiment: flow cytometry binding to PBMCs, cynomolgus
Text: FIG. 12A-D show the cross-reactivity of MCT1 Ab1 as assessed via flow cytometry measurements of binding to MCT1 on the surface of different species' PBMCs.
Binding affinity and MCT1 cross-reactivity. […] MCT1 Ab1 is also highly cross-reactive with cynomolgus (cyno) and rabbit MCT1, but not with rodent MCT1 (FIG. 12A-D).

B1: MCT1 Ab1: rat anti-human MCT1 monoclonal antibody (rat/human chimera); VH/VL SEQ ID NO: 2/3 (antibody, V domains shown)
VH: QVQLKATGPGLVQPTQTLSITCTVSGFSLTNYHLQWVRQTPGKGLEWMGFIRSSGNTEYNSEFKSRLSISRDTSKNQVFLKMNSLKTDDTGVYYCARNSWYHGTYYSPGYYVMDAWGQGASVTVSS
VL: NIHLTQSPSLLSASVGDRVTLSCKGSQNINNYLAWFQQKFGETPKLLIYNRHNLQTGIPSRFSGSGSGTDYTLTINSLQPEDVATYFCYQYSDGYTFGAGTKLELK
modifications: MCT1 Ab1 (INX310) VH; MCT1 Ab1 (INX310) VL
MCT1
  Kd: 1.2 nM
PK in cynos
  dose rate at which the RBC sink is saturated: ≥ 5 mpk
[1]
  lactate transport in human RBCs: unaffected
T cell proliferation
  EC50: 1.3 nM
Human T cells
  metabolomics findings in treated T cells: improved generation of ATP and NADH, along with increased oxidative metabolism and viability
[2]
  Kd: 7.6 nM
xeno-GVHD; compared to NSG mice treated with control antibody
  number of CD3+, CD4+ and CD8+ effector T cells: significant decrease in the number of CD3^+, CD4^+ and CD8^+ effector T cells
xeno-GVHD; compared to control antibody
  Tr1 cells: increases in Tr1 cells
xeno-GVHD; mouse, in vivo
  MABEL in xeno-GVHD: ~1 mpk
xeno-GVHD; re-challenge at day 42 with PBMC of the same donor
  survival, long-term protection and tolerance: increased survival, long-term protection and tolerance induction
[3]; 4 weekly doses at 50 mpk
  histological findings (heart, muscle, testis and eye, H & E): no adverse histological findings
[3]; 30 days, 4 weekly doses at 50 mpk
  in-life toxicity: no significant in-life toxicity
[3]; cynos, 50 mpk
  RBC mass after dosing: initial reduction of RBC mass after dosing this resolves after a short time
  tolerability of repeated dosing: tolerate repeated dosing
Cynomolgus MCT1
  binding to MCT1 on PBMCs: binds to cynomolgus MCT1
